The target in assay [1] is T1, B-cat-Halo (beta-catenin HaloTag NanoBRET construct expressed in HEK293 cells) (UniProt P35222 1-781, HaloTag NanoBRET 618 Ligand bound to the HaloTag).
T1 sequence (looked up): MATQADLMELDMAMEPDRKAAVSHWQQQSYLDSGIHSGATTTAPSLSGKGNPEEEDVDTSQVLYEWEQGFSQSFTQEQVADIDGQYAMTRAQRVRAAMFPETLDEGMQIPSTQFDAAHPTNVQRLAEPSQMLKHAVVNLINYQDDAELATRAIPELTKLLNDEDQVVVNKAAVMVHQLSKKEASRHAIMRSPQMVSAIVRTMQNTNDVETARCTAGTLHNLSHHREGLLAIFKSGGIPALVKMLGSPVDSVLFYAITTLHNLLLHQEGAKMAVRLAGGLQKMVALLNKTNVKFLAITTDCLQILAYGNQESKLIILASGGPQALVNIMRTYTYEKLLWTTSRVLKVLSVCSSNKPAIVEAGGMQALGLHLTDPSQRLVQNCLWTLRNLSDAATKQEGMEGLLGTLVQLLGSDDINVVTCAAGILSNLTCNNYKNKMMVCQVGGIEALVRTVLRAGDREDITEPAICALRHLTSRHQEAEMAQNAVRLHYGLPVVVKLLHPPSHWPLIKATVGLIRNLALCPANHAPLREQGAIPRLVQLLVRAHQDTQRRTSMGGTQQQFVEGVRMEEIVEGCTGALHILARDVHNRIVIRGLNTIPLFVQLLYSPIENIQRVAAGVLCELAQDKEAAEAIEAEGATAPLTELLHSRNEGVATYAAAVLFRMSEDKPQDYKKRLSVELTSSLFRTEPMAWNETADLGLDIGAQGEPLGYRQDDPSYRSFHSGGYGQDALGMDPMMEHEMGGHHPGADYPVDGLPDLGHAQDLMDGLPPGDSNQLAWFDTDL
Nature of the assay: cell-based or functional assay.

For assay [2], the target named is T2, full-length beta-Catenin (Uniprot ID P35222) (Homo sapiens (Human), UniProt P35222 1-781).
T2 construct: Any tags on the recombinant protein are not described for the FP assay; also called bCat; B-Catenin
T2 sequence: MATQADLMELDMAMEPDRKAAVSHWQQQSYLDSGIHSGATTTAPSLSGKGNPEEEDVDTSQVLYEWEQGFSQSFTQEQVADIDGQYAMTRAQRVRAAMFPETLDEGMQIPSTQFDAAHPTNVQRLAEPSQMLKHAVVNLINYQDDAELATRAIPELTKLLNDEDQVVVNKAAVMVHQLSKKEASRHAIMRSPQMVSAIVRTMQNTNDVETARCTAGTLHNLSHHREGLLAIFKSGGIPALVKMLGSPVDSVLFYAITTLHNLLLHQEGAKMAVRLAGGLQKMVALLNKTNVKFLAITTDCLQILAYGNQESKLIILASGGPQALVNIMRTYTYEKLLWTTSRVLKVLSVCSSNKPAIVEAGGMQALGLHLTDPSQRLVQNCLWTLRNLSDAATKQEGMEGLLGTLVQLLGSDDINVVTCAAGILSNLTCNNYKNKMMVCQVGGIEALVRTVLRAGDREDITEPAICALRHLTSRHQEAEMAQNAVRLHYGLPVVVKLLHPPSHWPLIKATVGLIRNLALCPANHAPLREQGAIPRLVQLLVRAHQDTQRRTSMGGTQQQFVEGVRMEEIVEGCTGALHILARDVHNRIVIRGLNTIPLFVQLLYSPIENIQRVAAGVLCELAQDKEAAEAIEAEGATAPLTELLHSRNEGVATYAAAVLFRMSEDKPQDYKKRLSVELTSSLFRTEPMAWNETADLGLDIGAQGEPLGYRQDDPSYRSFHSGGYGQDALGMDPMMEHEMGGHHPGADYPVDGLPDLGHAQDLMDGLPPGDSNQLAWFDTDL
Briefly: fluorescence polarization competition; displacement of 5FAM-TCF4(10-53) from full-length beta-catenin. How it is done: (§1) The plate was incubated protected from light for 60 minutes at 20° C. prior to read. Reads were performed on a CLARIOstar plate reader (BMG Labtech) in duplicate, and data were fitted to a 1:1 binding model with hill slope using an in-house script. All provided concentrations are final concentrations.
In general terms: Fluorescence polarisation rises when a labelled molecule tumbles more slowly, as on binding a larger partner.

For assay [3], the target named is T3, full-length beta-Catenin (Uniprot ID P35222) (Homo sapiens (Human), UniProt P35222 1-781).
T3 construct: also called bCat; B-Catenin
T3 sequence: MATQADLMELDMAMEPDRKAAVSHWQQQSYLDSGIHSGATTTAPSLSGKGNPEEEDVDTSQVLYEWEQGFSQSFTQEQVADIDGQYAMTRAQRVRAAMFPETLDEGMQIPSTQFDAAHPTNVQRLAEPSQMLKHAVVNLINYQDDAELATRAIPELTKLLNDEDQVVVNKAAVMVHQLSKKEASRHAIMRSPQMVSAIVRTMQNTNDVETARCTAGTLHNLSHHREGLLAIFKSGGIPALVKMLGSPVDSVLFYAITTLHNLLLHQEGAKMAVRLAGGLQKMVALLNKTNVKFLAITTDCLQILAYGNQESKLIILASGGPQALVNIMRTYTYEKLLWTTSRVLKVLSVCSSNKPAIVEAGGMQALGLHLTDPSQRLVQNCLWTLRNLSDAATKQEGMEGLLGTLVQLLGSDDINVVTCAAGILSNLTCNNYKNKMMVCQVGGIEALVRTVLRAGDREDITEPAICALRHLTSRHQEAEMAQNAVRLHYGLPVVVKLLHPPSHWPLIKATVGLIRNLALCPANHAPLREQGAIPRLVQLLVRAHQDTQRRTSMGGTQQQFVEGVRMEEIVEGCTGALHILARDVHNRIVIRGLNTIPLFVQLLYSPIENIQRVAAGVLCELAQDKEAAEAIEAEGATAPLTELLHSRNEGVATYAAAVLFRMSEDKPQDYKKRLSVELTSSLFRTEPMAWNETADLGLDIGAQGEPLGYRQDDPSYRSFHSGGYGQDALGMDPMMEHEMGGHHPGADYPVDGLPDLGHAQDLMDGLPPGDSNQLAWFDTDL
Nature of the assay: fluorescence polarization competition; peptide titrated against 10 nM full-length beta-catenin + 10 nM 5FAM-TCF4(10-53). As for the experimental part: as §1

For assay [4], the target named is T4, beta-catenin (Homo sapiens (Human), UniProt P35222 1-781).
T4 construct: The FP protocol says full-length beta-Catenin (Uniprot ID P35222); also called full-length beta-Catenin; bCat
T4 sequence: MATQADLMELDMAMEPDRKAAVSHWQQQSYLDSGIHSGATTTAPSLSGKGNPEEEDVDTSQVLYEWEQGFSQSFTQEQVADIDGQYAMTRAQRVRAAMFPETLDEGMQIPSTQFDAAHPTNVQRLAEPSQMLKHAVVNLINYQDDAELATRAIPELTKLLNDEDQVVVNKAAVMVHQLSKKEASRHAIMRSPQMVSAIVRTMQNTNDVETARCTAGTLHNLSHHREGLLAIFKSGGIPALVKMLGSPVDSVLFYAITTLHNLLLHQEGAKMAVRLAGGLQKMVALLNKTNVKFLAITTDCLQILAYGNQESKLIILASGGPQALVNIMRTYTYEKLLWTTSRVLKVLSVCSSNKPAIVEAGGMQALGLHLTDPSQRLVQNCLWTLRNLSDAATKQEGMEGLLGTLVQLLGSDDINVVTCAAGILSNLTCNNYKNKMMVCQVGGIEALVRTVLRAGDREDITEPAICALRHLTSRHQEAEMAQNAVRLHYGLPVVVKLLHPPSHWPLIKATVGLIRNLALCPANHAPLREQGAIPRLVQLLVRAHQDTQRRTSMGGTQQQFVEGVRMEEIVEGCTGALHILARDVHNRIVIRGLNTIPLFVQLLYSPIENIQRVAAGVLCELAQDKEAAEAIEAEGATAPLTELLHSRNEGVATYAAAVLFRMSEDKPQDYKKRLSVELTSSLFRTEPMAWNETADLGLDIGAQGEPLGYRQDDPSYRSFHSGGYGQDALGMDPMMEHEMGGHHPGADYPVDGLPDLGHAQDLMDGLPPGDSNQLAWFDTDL
Nature of the assay: fluorescence polarization competition; full-length beta-catenin with 5FAM-TCF4(10-53) probe as competitor. The method in brief:
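Incubate 60 minutes at 20° C. away from light, then read polarization in duplicate. Fit to 1:1 binding with hill slope.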

Starred links: 1 amine or outer side, 2 acyl side, 3 side chain; linkers in the order of their positions; H or OH if unused. Positions of bridges follow the written chain, without caps; N, C: chain ends. Non-standard residues stand in square brackets, D forms with d. Primed or numbered codes have the meaning given here. PyrS2″ = (S)-3-amino-1-((pent-4-en-1-yloxy)carbonyl)pyrrolidine-3-carboxylic acid (stapling residue), C=CCCCOC(=O)N1CC[C@@](N[*:1])(C(=O)[*:2])C1; B5(4) = 2,2-bis(4-pentenyl)glycine = 2-amino-2-(pent-4-en-1-yl)hept-6-enoic acid (stitching residue), C=CCCCC(CCCC=C)(N[*:1])C(=O)[*:2]; B5(5) = 2,2-bis(4-pentenyl)glycine, 2-amino-2-(pent-4-en-1-yl)hept-6-enoic acid (stitching residue), C=CCCCC(CCCC=C)(N[*:1])C(=O)[*:2]; Phe(2-Cl) = N[C@@H](Cc1ccccc1Cl)C(=O)O; Bta = N[C@@H](Cc1csc2ccccc12)C(=O)O; αAllylPro = C=CC[C@@]1(C(=O)O)CCCN1; S8 = C=CCCCCCC[C@](C)(N)C(=O)O

B1: I-1527: Ac-PL3-Asp-Ser-B5-Asp-Glu-Ala-Ala-Phe-Gln-S8-Phe-BztA-Gln-NH2 (peptide)
peptide: Ac-[αAllylPro]DS[B5(5)]DEAAFQ[S8]F[Bta]Q-NH2
modifications: staple 1-4, 4-11
notes: Stapled peptide composition; It has the same description as I-1526 and is the staple isomer composition of the later eluting HPLC peak
As to B1, the “NanoBRET Abs IC50” value in assay [1] turned out to be 30.3 µM. Also, the IC50 (in general, the concentration at which inhibition is half-maximal) in assay [2] came out at 36 nM.

B2: I-357 (peptide)
peptide: XDAXDDAAFVXFAQ
modifications: not fully specified; N-terminal Ac; PL3 at 1, B5 at 4, S8 at 11 (staples 1-4 and 4-11 by olefin metathesis); C-terminal NH2
notes: Stapled peptide; also called Ac-PL3-Asp-Ala-B5-Asp-Asp-Ala-Ala-Phe-Val-S8-Phe-Ala-Gln-NH2
As to B2, the IC50 in assay [3] was found to be 5 µM.

For the molecule Ac-[αAllylPro]DL[B5(4)]DDAAFL[PyrS2″][Phe(2-Cl)][Bta]L-NH2 (staple 1-4, 4-11; also: staple isomer composition of earlier HPLC peak, stapled peptide) [I-1418], in assay [4], a half-maximal effect (EC50) was put at 106 nM.

(Values after patent publication US20240116985A1 (published 2024).)
